Data on 2 molecules can be found in PMC3675627, “Structures of Arenaviral Nucleoproteins with Triphosphate dsRNA Reveal a Unique Mechanism of Immune Suppression*”.

The target in data set [1] is T1, LASV NP-C (catalytically active exoribonuclease domain) (Lassa virus, UniProt P13699 364-569). The data set can be described thus: […], pH 5.5, room temperature; […]. As to conditions: protein: recombinant; blunt; self-complementary, 2 copies of one strand.
Data set [2] deals with T1, LASV NP-C (catalytically active …). The data set can be described thus: X-ray crystallography, 1.68 A; […], pH 5.5, room temperature; […]. As to conditions: protein: recombinant; 5' overhang 4 nt on complementary strand.

T1 sequence (P13699 364-569): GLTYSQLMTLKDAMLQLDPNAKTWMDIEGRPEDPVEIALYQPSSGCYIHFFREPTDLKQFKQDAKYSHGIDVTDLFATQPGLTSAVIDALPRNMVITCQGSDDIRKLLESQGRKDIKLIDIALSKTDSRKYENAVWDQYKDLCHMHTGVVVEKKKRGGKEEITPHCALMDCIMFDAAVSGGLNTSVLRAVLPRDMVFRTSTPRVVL

B1: 8-bp 5'-ppp dsRNA (input) (dsRNA)
RNA 1: GGGCGCCC
RNA 2: GGGCGCCC
modifications: 5'-triphosphate
Take B1: the binding result in data set [1] is “binds”.

B2: cleaved intermediate of the 5'-ppp dsRNA (4-nt cleaving strand, 8-nt complementary strand) (dsRNA)
RNA 1: GGGC
RNA 2: GGGCGCCC
modifications: 5'-triphosphate
With B2, the binding result in data set [2] is “binds”.
